Here are results for six molecules from US20250019435A1 (ALBERT EINSTEIN COLLEGE OF MEDICINE, published 2025).

B6: D0-deleted KIR2DL5 expressed on 3T3 cells (receptor)
chain: GLFGKPSLSAQPGPTVRTGENVTLSCSSRSSFDMYHLSREGRAHEPRLPAVPSVNGTFQADFPLGPATHGGTYTCFGSLHDSPYEWSDPSDPLLVSVTGNSSSSSSSPTEPSSKTGIRRHLHILIGTSVAIILFIILFFFLLHCCCSNKKNAAVMDQEPAGDRTVNREDSDDQDPQEVTYAQLDHCVFTQTKITSPSQRPKTPPTDTTMYMELPNAKPRSLSPAHKHHSQALRGSSRETTALSQNRVASSHVPAAGI
notes: the signal peptide 1-21 is left out; also called KIR2DL5 dD0; DO-deleted KIR2DL5

Assay [1] deals with T1, PVR-Ig fusion protein (UniProt P15151 27-343).
T1 construct: Bought (R&D Systems); also called PVR-Ig protein; not shown: Ig part, detected with anti-human IgG Fc
T1 sequence (looked up): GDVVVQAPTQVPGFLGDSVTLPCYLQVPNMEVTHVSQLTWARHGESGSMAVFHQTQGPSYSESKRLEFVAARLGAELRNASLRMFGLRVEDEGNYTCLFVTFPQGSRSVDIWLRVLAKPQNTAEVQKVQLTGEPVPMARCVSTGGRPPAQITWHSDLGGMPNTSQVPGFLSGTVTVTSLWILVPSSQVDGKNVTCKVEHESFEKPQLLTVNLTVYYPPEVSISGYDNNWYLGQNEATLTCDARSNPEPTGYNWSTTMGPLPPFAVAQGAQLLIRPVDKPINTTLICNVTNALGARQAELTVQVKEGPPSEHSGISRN
In words: flow cytometry, PVR-Ig on transduced 3T3 cells. Here is the method:
FIG. 10A-E: Allelic polymorphism affected PVR binding of KIR2DL5. (A) Flow cytometric analysis of PVR-Ig or CD112-Ig (open) or control hIg (shaded) binding to KIR2DL5/3T3. (B) Flow cytometric analysis of PVR-Ig binding to KIR2DL5/3T3 in the presence of increasing concentrations of F8B30. (C) KIR2DL5 bound to different sites of PVR from other receptors. PVR-Ig protein was preincubated with indicated His-tagged protein and then stained KIR2DL5/3T3 cells. […] (D) Flow cytometric analysis of PVR-Ig (open) or control hIg (shaded) binding on 3T3 cells expressing WT, DO-deleted, or D2-deleted KIR2DL5. Parental 3T3 cells were used as a negative control. (E) Flow cytometric analysis of PVR-Ig or control hIg (shaded) binding on 3T3 cells expressing different KIR2DL5 alleles. In A-E, data are representative of 2 independent experiments.
Fusion protein cell binding assays. PVR-Ig, CD112-Ig, or hIgG (R&D Systems) was incubated with corresponding 3T3 cells on ice for 45 minutes, followed by incubation with APC- or PE-conjugated anti-human IgG Fc antibody (1:100; clone HP6017, BioLegend) on ice for 30 minutes. Cells were then acquired on an LSR II flow cytometer (BD Biosciences). In the anti-KIR2DL5 mAb blocking assay, KIR2DL5/3T3 cells were preincubated with a serial concentration of anti-KIR2DL5 mAb F8B30 or mIgG1 on ice for 30 minutes. […]
(In general: In flow cytometry, cells or beads pass a laser one at a time.)

For assay [2], the target named is B6. Put plainly: flow cytometry, transduced 3T3 cells. An excerpt: FIG. 15A-15E: Characterization of anti-KIR2DL5 specific monoclonal antibodies. (Related to FIGS. 8A-8D). (A) The protein sequence of KIR2DL5. The extracellular domain of KIR2DL5 was composed of tandem DO-D2 domains. The cytoplasmic tail of KIR2DL5 contained an immunoreceptor tyrosine-based inhibition motif (ITIM) and immunoreceptor tyrosine-based switch motif (ITSM). Domains were predicted and annotated based on UniProtKB (Q8N109). (B) The specificity of anti-KIR2DL5 mAbs. 3T3 cells transduced with indicated KIR family members were stained with 5 μg/ml of indicated anti-KIR2DL5 mAbs (open) or mIgG1 (shaded). (C, D) The affinity of anti-KIR2DL5 mAbs. C: Kinetic binding curves for F8B30 and B19C11. D: Data were acquired from kinetic binding curves detected by the Octet Red96 BLI instrument for indicated clones. (E) 3T3 cells transduced with DO-deleted (KIR2DL5 dD0) or D2-deleted KIR2DL5 (KIR2DL5 dD2) were stained with 5 μg/ml of indicated anti-KIR2DL5 mAbs. In B-E, data are representative of three independent experiments.

The target in assay [3] is T2, KIR2DL5A*005 allele expressed on 3T3 cells (human).
T2 construct: also called 2D5A*005
In words: flow cytometry, 3T3 cells expressing KIR2DL5 alleles, mAb 5 µg/ml.

The target of assay [4] is T3, KIR2DL5-Ig fusion protein (KIR2DL5 extracellular domain fused to human IgG1 Fc) (human, UniProt Q8N109 22-240).
T3 construct: A D0-only fusion (H22-A128) also exists; also called KIR2DL5-human Ig fusion protein; KIR2DL5 DO-D2-Ig; not shown: human IgG1 Fc tag
In words: BLI, Octet RED96; KIR2DL5-Ig captured on anti-human Fc biosensors, mAb in solution; global 1:1 fit. Here is the method: Biolayer interferometry. The affinities of anti-KIR2DL5 mAbs were analyzed by biolayer interferometry using an Octet RED96 system (ForteBio, Pall LLC). Briefly, anti-human Fc capture biosensors (ForteBio, Pall LLC) were preloaded with KIR2DL5-Ig and then dipped into a solution containing mAb at 2-fold serial dilutions (from 200 to 1.5 μg/mL). Data were analyzed using Forte Pall (Port Washington, New York, USA) software 9.0. The global data fitting to a 1:1 binding model was used to estimate values for the Kₒₙ (association rate constant), Koff (dissociation rate constant), and KD (equilibrium dissociation constant).
A general note: In BLI a coated tip is dipped into the sample, and binding shifts an interference pattern.

The target of assay [5] is T4, PVR expressed on transduced cells (PVR-YFP) (UniProt P15151 21-417).
T4 construct: whole, on cells; On NIH 3T3 or Raji cells; also called PVR/3T3; PVR-YFP/3T3; not shown: YFP ('PVR-YFP ... fusion protein')
T4 sequence (looked up): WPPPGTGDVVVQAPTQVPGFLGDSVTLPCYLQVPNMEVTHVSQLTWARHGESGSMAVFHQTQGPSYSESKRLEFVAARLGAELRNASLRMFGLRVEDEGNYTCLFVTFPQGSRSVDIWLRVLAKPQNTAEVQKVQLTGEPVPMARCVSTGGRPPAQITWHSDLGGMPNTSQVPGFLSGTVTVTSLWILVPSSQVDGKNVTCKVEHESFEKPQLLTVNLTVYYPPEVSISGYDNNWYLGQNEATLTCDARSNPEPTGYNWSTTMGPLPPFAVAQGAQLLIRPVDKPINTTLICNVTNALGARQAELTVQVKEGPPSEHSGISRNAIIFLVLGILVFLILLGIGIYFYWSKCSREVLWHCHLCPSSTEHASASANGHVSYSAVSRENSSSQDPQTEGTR
In words: confocal imaging of conjugates of transduced primary NK cells with PVR-YFP/Raji cells. As to the method: The KIR2DL5⁻ primary NK cells were transduced with WT KIR2DL5 or the indicated mutants, and then examined for protein expression with F8B30 (open) or mIgG1 (shaded). NC, negative control. Data are representative of 2 independent experiments. (B and C) Transduced primary NK cells were treated with (+) or without (−) pervanadate (VO₄) for 5 minutes. Cell lysates were immunoprecipitated with anti-KIR2DL5 antibodies. Phospho-tyrosine (4G10), SHP-1, SHP-2, and total KIR2DL5 were detected by immunoblots (B). Quantification of p-Tyr, SHP-1, and SHP-2 association with WT or mutant KIR2DL5 in VO₄-treated NK cells (C). WCL, whole-cell lysates. (D) Representative imaging of cell conjugates acquired upon the indicated transduced primary NK and PVR/Raji cell contact followed by staining with anti-KIR2DL5 mAb and DAPI. Scale bars: […]. (E) Lysis of scramble control or PVR^KO A427 (top) and Jurkat (bottom) by WT or mutant KIR2DL5-transduced primary NK cells at the indicated E/T ratios. Data are mean for duplicate measurements and representative of 3 independent experiments with 3 different donors. In A, and B, data are representative of 3 independent experiments. *P<0.05, **P<0.01, ***P<0.001, ****P<0.0001, by 1-way ANOVA (C), or paired Student's t test (D).
NK-Raji conjugation assay. […] Cell mixtures were then loaded onto poly-L-lysine-precoated slides and fixed with 4% formaldehyde at RT for 15 minutes. After blocking with 5% normal goat serum at RT for 1 hour, cells were stained with 20 µg/mL anti-KIR2DL5 antibodies (a mixture of 8 homemade clones) at 4° C. overnight and then with goat anti-mIgG (H+L) Alexa Flour 647 (Invitrogen) at RT for 2 hours. The cells were permeabilized by 0.1% Triton X-100 at RT for 15 minutes and stained with Alexa Flour Plus 405 Phalloidin (Life Technologies) for 1 hour at RT. The slides were then mounted by Gold Antifade Mountant without DAPI (Life Technologies). The mean pixel intensity of synapse and non-synapse was respectively measured and statistically analyzed. Images were acquired by Leica SP8 confocal microscope and processed by ImageJ (NIH).

What is called Kd is the equilibrium constant for the complex coming apart. Lower therefore signals tighter binding. In general, koff refers to the rate constant with which the complex falls apart. Lower therefore signals a long-lived complex. One may read the kon as a measure of how fast the partners come together.

B1: D2-deleted KIR2DL5 expressed on 3T3 cells (receptor)
chain: HEGGQDKPLLSAWPSAVVPRGGHVTLLCRSRLGFTIFSLYKEDGVPVPELYNKIFWKSILMGPVTPAHAGTYRCRGSHPRSPIEWSAPSNPLVIVVTGNSSSSSSSPTEPSSKTGIRRHLHILIGTSVAIILFIILFFFLLHCCCSNKKNAAVMDQEPAGDRTVNREDSDDQDPQEVTYAQLDHCVFTQTKITSPSQRPKTPPTDTTMYMELPNAKPRSLSPAHKHHSQALRGSSRETTALSQNRVASSHVPAAGI
notes: also called KIR2DL5 dD2
Regarding B1, in assay [1], the binding result is on record as “no binding”.

B2: anti-KIR2DL5 mAb clone B33C12 (antibody, V domains shown)
VH: QVQLQQSGAELVKPGASVKMSCKAFGYTFTSFPIEWMKQNHGKSLEWIGNFHPSNDDTKYNEKFNGKAKLTAETSSKTVYLELSRLTSDDSAVYYCARGSDYSFALDYWGQGTSVTVSS
VL: GIVLTQSPASLAVSLGQRATISCRASESVDSYGYSFMHWYQQKPGQPPKLLIYRASNLKSGIPARFSGSGSRTDFTLTINPVEADDVATYYCQQSNEDPWTFGGGTKLEIK
notes: also called B33C12 (IgG2a, κ)
Turning to B2, in assay [2], the binding result is “no binding (tested: 5 µg/ml)”. Further, the binding result in assay [3] is reported as “binds”. In assay [4], this molecule yielded a dissociation constant Kd of 0.359 nM, a koff of 0.000299 s⁻¹ and a kon of 835000 M⁻¹ s⁻¹.

B3: anti-KIR2DL5 mAb clone B11B4 (antibody, V domains shown)
VH: QVQLQQSGGELVKPGASVKMSCKAFGYTFTSFPIEWMKQNHGKSLEWIGNFHPYNDDTKYNEKFNGKAKLTAETSSKTVYLELSRLTSDDCSVYYCARGSDYSFGLDYWGQGTSVTVSS
VL: GIVLTQSPASLVVSLGQRATISCRASESVDSYGYSFMHWYQQKPGQPPKLLIYRASNLKSGIPARFSGSGCRTDFTLTINPVEADDVATYYCQQSNEDPWTFGGGTKAGN
notes: also called B11B4 (IgG2b, κ)
Consider B3, for which, in assay [2], the binding result was “no binding (tested: 5 µg/ml)”. In assay [4], this molecule came in with a dissociation constant (Kd) of 0.245 nM, a koff of 0.000202 s⁻¹ and a kon of 825000 M⁻¹ s⁻¹.

B4: anti-KIR2DL5 mAb clone B2A18 (antibody, V domains shown)
VH: QIQLVQSGPEVKKPGETVKISCKASGYTFTKYGMNWVKQAPGKGLKWMGWINTNTGESTYAEDFKGRFAFSLETSANTAFLQINNLKNEDTAAYFCARWGPYGSSLYYGMDYWGQGTSVTVS
VL: DIQMTQSSSSFSISLGDRVTITCRASEDLYNRLAWYQQKPGNAPRLLISGATSLETGVPSRFSGSGSGKDFTLSIPSVQTEDVGTYYCQQYRYTPWTFGGGTTLN
notes: also called B2A18, (IgG1, κ)
On to B4, for which, in assay [2], the binding result is recorded as “no binding (tested: 5 µg/ml)”. In addition, the binding result in assay [3] is reported as “binds”. Besides, in assay [4], binding was put at a Kd of 0.104 nM, the koff came to 0.000175 s⁻¹ and the on-rate (kon) worked out at 1.68e+06 M⁻¹ s⁻¹.

B5: Y328F (receptor)
receptor chain: HEGGQDKPLLSAWPSAVVPRGGHVTLLCRSRLGFTIFSLYKEDGVPVPELYNKIFWKSILMGPVTPAHAGTYRCRGSHPRSPIEWSAPSNPLVIVVTGLFGKPSLSAQPGPTVRTGENVTLSCSSRSSFDMYHLSREGRAHEPRLPAVPSVNGTFQADFPLGPATHGGTYTCFGSLHDSPYEWSDPSDPLLVSVTGNSSSSSSSPTEPSSKTGIRRHLHILIGTSVAIILFIILFFFLLHCCCSNKKNAAVMDQEPAGDRTVNREDSDDQDPQEVTYAQLDHCVFTQTKITSPSQRPKTPPTDTTMFMELPNAKPRSLSPAHKHHSQALRGSSRETTALSQNRVASSHVPAAGI
notes: also called KIR2DL5 Y328F (ITSM mutant) on transduced primary NK cells
In the case of B5, in assay [5], the binding result is given as “binds”.

Consider B6, for which, in assay [1], the binding result is on record as “no binding”.
